Measured values published in article PMC7304070 (Journal of the American Chemical Society, 2020).
Numbered stars: 1 amine (or outer) side, 2 acyl side, 3 side chain; on linkers, the order of the positions; unused ones are H or OH. Bridge positions count the residues as written; N and C are the ends. Square brackets hold non-standard residues; d marks the D form. Ends that are not written are not given here. Bis(1,2,3triazol4ylCH2)ether = c1c(COCc2cn([*:2])nn2)nnn1[*:1]; Aha = [N-]=[N+]=NCC[C@H](N)C(=O)O

biological target: biotinylated MDM2 truncate (residues 10-118) (UniProt Q00987 10-118, biotin (NHS-PEG4-Biotin)); test: BLI
Sequence (Q00987 10-118): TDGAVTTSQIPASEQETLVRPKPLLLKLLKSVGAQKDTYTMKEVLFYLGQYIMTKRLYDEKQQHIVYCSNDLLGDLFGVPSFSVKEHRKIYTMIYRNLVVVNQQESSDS

Binder	Kd
VLSF[Aha]DYWNLL[Aha]GS-NH2 (triazole 5-12 via Bis(1,2,3triazol4ylCH2)ether) [SPD-M3-V1, synthetic, stabilized]	0.014 µM
GGTF[Aha]GYWADL[Aha]AF-NH2 (triazole 5-12 via Bis(1,2,3triazol4ylCH2)ether) [SPD-M3-G1, synthetic, stabilized]	0.0051 µM
GGTF[Aha]GYWADL[Aha]AF-NH2 [SPD-M3-G1, synthetic, non-stabilized]	0.021 µM
VLSF[Aha]DYWNLL[Aha]GS-NH2 [SPD-M3-V1, synthetic, non-stabilized]	0.131 µM

biological target: AlexaFluor647 tagged MDM2-GST (UniProt Q00987 1-491, AlexaFluor647 label); test: flow cytometry on cells
Sequence (Q00987 whole entry): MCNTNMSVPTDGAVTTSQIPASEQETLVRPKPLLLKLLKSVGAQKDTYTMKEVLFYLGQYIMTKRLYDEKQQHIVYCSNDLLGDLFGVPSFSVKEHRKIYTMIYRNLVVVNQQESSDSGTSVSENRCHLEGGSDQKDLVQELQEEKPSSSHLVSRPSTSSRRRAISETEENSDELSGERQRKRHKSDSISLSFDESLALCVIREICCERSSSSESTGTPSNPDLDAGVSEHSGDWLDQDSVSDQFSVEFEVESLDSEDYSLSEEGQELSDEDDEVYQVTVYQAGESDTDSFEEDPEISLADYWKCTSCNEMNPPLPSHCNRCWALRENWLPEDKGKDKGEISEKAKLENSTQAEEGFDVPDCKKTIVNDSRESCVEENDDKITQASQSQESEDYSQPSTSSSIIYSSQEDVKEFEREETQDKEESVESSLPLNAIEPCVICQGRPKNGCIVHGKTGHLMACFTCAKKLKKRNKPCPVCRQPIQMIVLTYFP

Binder	Kd
VLSF[Aha]DYWNLL[Aha]GS (triazole 5-12 via Bis(1,2,3triazol4ylCH2)ether) [SPD-M3-V1, displayed on the bacterial surface, stabilized]	0.0098 ± 0.0034 µM
VLSF[Aha]DYWNLL[Aha]GS [SPD-M3-V1, displayed on the bacterial surface, non-stabilized]	0.064 ± 0.033 µM
